Molecular target: VZV glycoprotein B H527P on extracellular vesicles (varicella-zoster virus (VZV)) (UniProt P09257)
Assay: cryo-EM structure; cryo-electron tomography with subtomogram averaging (EMAN2) of gB[H527P] in the membranes of extracellular vesicles from BHK-21 cells; C3 symmetry applied; two classes by focused classification

VZV glycoprotein B H527P on extracellular vesicles (from UniProt P09257 72-931) (natural protein)
stoichiometry N: 3

From publication PMC10693595 (2023)
